Patent publication US20240352102A1
Several values for one entry are separate records, joined by “and”; a condition that tells them apart may be missing. Equal values may be shown once. Read-outs that look alike come from different tables or passages of the source.

Key:
Peptide_060 [1] = target: T1, Peptide_060; assay: peptide microarray
T1 sequence (peptide): LKHQPGGGKVQIINK

Peptide_060 [2] = target: T1, Peptide_060; assay: peptide microarray; remark: listed apart in the source
Peptide_061 [3] = target: T2, Peptide_061; assay: peptide microarray
T2 sequence (peptide): PGGGKVQIINKKLDL

Peptide_051 = target: T3, Peptide_051; assay: peptide microarray
T3 sequence (peptide): RTPPKSPSSAKSRLQ

Peptide_060 [4] = target: T1, Peptide_060; assay: peptide microarray; remark: listed apart in the source
Peptide_061 [5] = target: T2, Peptide_061; assay: peptide microarray; remark: listed apart in the source
[6] = target: biotinylated a/B tubulin dimers; assay: SPR, biotinylated tubulin dimers as probe on a streptavidin chip, tau in solution

Row | Substance | fluorescence intensity (Peptide_060 [1]) | fluorescence intensity (Peptide_060 [2]) | further results
1 | Recombinant human tau isoform 1N4R (from UniProt P10636 1-412) | – | – | Kd [6]: 39.8 nM
2 | T46 (antibody) | 1650 and 844 | – | fluorescence intensity (Peptide_061 [3]): 3020
3 | TNT1 (antibody) | – | 925 and 797 | –
4 | TNT2 (antibody) | – | 771 and 1024 | –
5 | TOC1 (antibody) | 1580 and 1790 | – | –
6 | tau1 (antibody) | 3040 and 1780 | – | –

Now from value to substance, other results behind:

Row | fluorescence intensity (Peptide_060 [1]) | fluorescence intensity (Peptide_060 [2]) | Substance | further results
7 | 2600 | 3070 | ALZ50 (antibody) | –
8 | 770 and 1100 | – | MC1 (antibody) | –
9 | 722 | – | RD4 (antibody) | fluorescence intensity (Peptide_061 [3]): 10700; fluorescence intensity (Peptide_051): 163; fluorescence intensity (Peptide_060 [4]): 738; fluorescence intensity (Peptide_061 [5]): 21000
10 | 1010 | – | T14 (antibody) | fluorescence intensity (Peptide_060 [4]): 840
